This passage reports EC50, Emax and Binding value (FACS fluorescence intensity) results from patent publication US20210230272A1.

Assay [1] has as its target IL10 antibody (Sino biological, Cat #SEKA10947). Description: ELISA, same conditions as the antigen-coated ELISA. (In an ELISA, binding on a coated surface is turned into a signal by an enzyme label.)
Assay [2] addresses human PD-L1 (human) (UniProt Q9NZQ7). Description: ELISA, PD-L1 coated; control of LB319.
For assay [3] the target is unchanged. Nature of the assay: ELISA, PD-L1 coated; control of LB320.
Another assay concerns the target mice CLDN18.2 (mice) (UniProt P56857). Nature of the assay: cell ELISA, mCLDN18.2+ cells.
For assay [4], the target named is human CLDN18.2 (human) (UniProt P56856). Description: flow cytometry, CF488 labeled antibody 1 µg/ml, hCLDN18.2+ cells. In general terms: In flow cytometry, cells or beads pass a laser one at a time.
Assay [5] shares this target. Nature of the assay: flow cytometry, CF633 labeled antibody 10 µg/ml, hCLDN18.2+ cells.
Assay [6] has the same target. Nature of the assay: flow cytometry, CF488 labeled antibody 10 µg/ml, hCLDN18.2+ cells.
The target is the same in assay [7]. Nature of the assay: flow cytometry, CF633 labeled antibody 1 µg/ml, hCLDN18.2+ cells.

human PD-L1 (human), sequence (Q9NZQ7 19-238): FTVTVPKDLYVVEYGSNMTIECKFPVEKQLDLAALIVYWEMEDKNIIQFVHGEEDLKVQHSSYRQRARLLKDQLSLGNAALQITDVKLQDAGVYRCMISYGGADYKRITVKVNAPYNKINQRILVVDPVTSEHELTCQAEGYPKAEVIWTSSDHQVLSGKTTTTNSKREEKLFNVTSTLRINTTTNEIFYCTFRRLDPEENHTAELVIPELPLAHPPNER

One may read the EC50 as the midpoint of the concentration-response curve. Low values mean an effect from little substance, high ones a need for much substance. As for “IL10 (Peprotech, Cat #: 200-10) (from UniProt P22301 19-178) (ligand)”, in assay [1], the EC50 worked out at 4.53 nM.
Take LB318 (Durvalumab) (antibody): the EC50 with human PD-L1 (human) [2] and with human PD-L1 (human) [3] was 0.072 nM in each case.
In the assay with mice CLDN18.2 (mice), Neg IgG (antibody) had an Emax of 0.19. In addition, the Binding value (FACS fluorescence intensity) with human CLDN18.2 (human) [4] was determined as 1750; with human CLDN18.2 (human) [5], 23.2; in the assay with human CLDN18.2 (human) [6], 3480; with human CLDN18.2 (human) [7] it was 23.
